From US20240350682A1 (FUSION PHARMACEUTICALS, published 2024) come the findings set out here.

Broadly, the EC50 is the concentration at which the effect is half-maximal. Read a high EC50 as lower potency in that assay. A word on the Kd: it is the equilibrium constant for the complex coming apart.

The target in assay [1] is T1, six-transmembrane epithelial antigen of prostate-2 (STEAP2) (human, UniProt Q8NFT2 1-490).
T1 construct: Endogenous STEAP2 on prostate cancer cell lines (LNCaP, C4-2, 22RV1); also called STEAP2 receptor
T1 sequence: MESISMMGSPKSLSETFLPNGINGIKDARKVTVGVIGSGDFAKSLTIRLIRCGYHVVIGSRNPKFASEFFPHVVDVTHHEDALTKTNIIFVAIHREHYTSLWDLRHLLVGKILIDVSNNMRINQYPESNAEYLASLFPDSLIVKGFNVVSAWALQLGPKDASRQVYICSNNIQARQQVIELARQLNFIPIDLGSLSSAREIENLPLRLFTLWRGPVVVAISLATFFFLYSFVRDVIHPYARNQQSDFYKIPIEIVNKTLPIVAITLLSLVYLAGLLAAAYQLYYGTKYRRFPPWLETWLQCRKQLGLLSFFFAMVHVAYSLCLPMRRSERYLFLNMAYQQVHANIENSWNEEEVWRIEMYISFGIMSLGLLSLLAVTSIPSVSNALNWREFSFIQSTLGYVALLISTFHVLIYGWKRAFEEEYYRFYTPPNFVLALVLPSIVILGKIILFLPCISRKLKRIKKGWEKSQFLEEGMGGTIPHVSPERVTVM
The experiment in a line: cell-based binding on LNCaP cells.

In assay [2] the target is T1, six-transmembrane epithelial antigen of …. The experiment in a line: cell binding on LNCaP cells.
For assay [3] the target is unchanged. The experiment in a line: radioligand saturation binding on C4-2 cells, single-site fit of specific binding. How it is done:
(§1) The purpose of this assay was to ensure that the radioimmunoconjugates maintained the binding characteristics of the native antibody in STEAP2 expressing cell lines including C4-2, 22RV1 and LNCaP. One day prior to the experiment, cells (1.5-2×10⁵) were seeded in 48-well microplates in 500 μL supplemented medium. At the start of the assay, cells were washed with PBS once and then treated with either Binding Buffer or 5 μM cold antibody [total binding (TB) and non-specific binding (NSB) respectively]. Plates were incubated at 4° C. for about one hour with mild shaking. Following incubation, both […] and NSB cells were treated with increasing concentrations of [¹⁷⁷Lu]-STEAP2 (40A3-LO11) or [¹⁷⁷Lu]-STEAP2 (40A3-LO14) (0.098 nM to 50 nM) and were incubated at 4° C. for about two hours with mild shaking.
(§2) Following incubation, the cells were washed twice with PBS and were then lysed with 1% Triton-X-100. The lysates were transferred to gamma counting tubes and run along with the standard of [¹⁷⁷Lu]-STEAP2 (40A3-LO11) or [¹⁷⁷Lu]-STEAP2 (40A3-LO14) on the Wizard 1470 gamma counter to determine the amount of radioactivity in counts per minute (CPM) for each lysate. The remaining lysate from each well (25 μL) was used for analyzing the protein content using a standard protein quantification assay.

For assay [4] the target is unchanged. The experiment in a line: saturation radioligand binding on 22RV1 cells (4 °C); specific = total minus nonspecific binding in the presence of excess unlabeled antibody; single-site fit. How it is done: as §1, §2
For assay [5] the target is unchanged. The experiment in a line: radioligand saturation binding on LNCaP cells, single-site fit of specific binding. How it is done:
as §1, §2

For assay [6] the target is unchanged. The experiment in a line: radioligand saturation binding on 22RV1 cells, single-site fit of specific binding. How it is done: as §1, §2
The target is the same in assay [7]. The experiment in a line: saturation radioligand binding on C4-2 cells (4 °C); specific = total minus nonspecific binding in the presence of excess unlabeled antibody; single-site fit. On the procedure: as §1, §2
For assay [8] the target is unchanged. The experiment in a line: saturation radioligand binding on LNCaP cells (4 °C); specific = total minus nonspecific binding in the presence of excess unlabeled antibody; single-site fit. On the procedure:
as §1, §2

Numbering of substitutions follows the chain as printed.

B1: 40A3-LO14 (IgG1-TM) (antibody, V domains shown)
VH: QVQLQQSGPGLVKPSQTLSLTCAISGDSVSRNSAVWNWIRQSPSRGLEWLGRTYYRSKWYNDYAPSVKSRITINPDTSKNQFSLQLNSVTPEDTAVYYCARGLRQNQFYYYMDVWGKGTTVTVSS
VL: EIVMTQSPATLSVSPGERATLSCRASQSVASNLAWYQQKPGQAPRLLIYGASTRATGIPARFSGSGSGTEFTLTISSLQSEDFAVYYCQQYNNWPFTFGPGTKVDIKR
notes: Human IgG1 kappa with reduced effector function (IgG1-TM); also called 40A3GL-LO14; 40A3-LO14 hIgG-TM
Regarding B1, the “fold improvement in binding relative to 40A3-LO7” value in assay [1] was 26 fold. Moreover, in assay [2], it took 1.67 nM to reach a half-maximal effect (EC50).

B2: [177Lu]-STEAP2 (40A3-LO14) (antibody, human IgG1, kappa, V domains shown)
VH: B1 VH
VL: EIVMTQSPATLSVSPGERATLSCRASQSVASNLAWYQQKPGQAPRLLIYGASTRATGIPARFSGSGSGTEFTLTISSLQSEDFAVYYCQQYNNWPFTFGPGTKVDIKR
modifications: 177Lu complex of the DOTA chelate of Compound C (PEG3 linker) conjugated to the antibody through its tetrafluorophenyl ester; sites and chain not stated; typical chelate to antibody ratios 5-5.5
notes: also called [177Lu]-Compound C-anti-STEAP2 conjugate; [177Lu]-DOTA-anti-STEAP2 conjugate
For the molecule B2, the Kd is about 2.8 nM in assay [3]; 3.26 nM in assay [4]; about 0.79 nM in assay [5]; about 3.2 nM in assay [6]; 2.82 nM in assay [7].

B3: 40A3-LO11 (IgG1-TM) (antibody, V domains shown)
VH: B1 VH with R104L
VL: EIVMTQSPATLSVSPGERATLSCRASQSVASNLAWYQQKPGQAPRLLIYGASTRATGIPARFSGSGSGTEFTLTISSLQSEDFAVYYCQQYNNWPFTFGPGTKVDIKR
B3 came in with an EC50 in assay [2] of 2.38 nM.

B4: [177Lu]-STEAP2 (40A3-LO11) (antibody, human IgG1, kappa, V domains shown)
VH: B1 VH with R104L
VL: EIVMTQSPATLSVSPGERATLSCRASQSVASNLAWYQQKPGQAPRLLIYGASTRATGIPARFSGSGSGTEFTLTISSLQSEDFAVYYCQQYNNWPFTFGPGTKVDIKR
modifications: 177Lu complex of the DOTA chelate of Compound C (PEG3 linker) conjugated to the antibody; sites, chain and ratio not stated for this antibody
notes: Radioimmunoconjugate of 40A3-LO11; also called [177Lu]-Compound C-anti-STEAP2 conjugate
As for B4, the Kd in assay [3] was about 6.9 nM; in assay [4], 6.77 nM; in assay [8], 1.24 nM; in assay [5], about 1.2 nM; in assay [6], about 6.7 nM; in assay [7], 6.58 nM.
